Measured values published in publication PMC11736430, “Embedding a ribonuclease in the spore crust couples gene expression to spore development in Bacillus subtilis” (Nucleic Acids Research, 2025).

Biological target: the molecule itself
Assay: SEC; KapD alone on the gel-filtration column; fractions 8-16 blotted with anti-KapD; size against a molecular weight marker

B1: KapD-6xHis (enzyme, B. subtilis, UniProt O05231 1-205, looked up)
chain: MTTNSLLIIDFEFTMPDGKYSPQNFFPEIIEAGIVKSIDDEVVETFSSYVRPKKFPKLTKRCKSFLKITQKQVDEGMRFEDFIRKLNELDPEKNSTIITWGNMDMKVLKQNCMFNHIPFPFKGEMRDLSLEYKNFFGDRTLTGLWKAAEEYGDSGTGTHHKALDDALTAYKLFKLVEQDKQYLEKPKPPTIGERIDLTELLKRAT
notes: KapD, 3'-exoribonuclease of the DEDDh family, Bacillus subtilis; kapD gene amplified with oligos CC073/074 and cloned in pET28a (EcoRI/SalI); also called KapD-His; His-tagged KapD; source: E. coli BL21 CodonPlus RIL (strain CCE095); in lysate (cells lysed together with the CotY strain), and purified (His-Trap, gel filtration) for KapD alone; not shown: His6, C-terminal, kept
- stoichiometry N: 2
